Source: the supplement of paper PMC7877785
± gives the uncertainty stated by the source.

Experiment: self-splicing fitness, log relative to wild type (ln ratio); higher = more splicing; Tetrahymena group I intron in knt gene, E. coli kanamycin selection, DiMSum; sequences stand for … in CUCUCU…GGAGGGAAAAGUUAUCAGGCAUGCACCUGGUAGCUAGUCUUUAAACCAAUAGAUUGCAUCGGUUUAAAAGGCAAGACCGUCAAAUUGCGGGAAAGGGGUCAACAGCCGUUCAGUACCAAGUCUCAGGGGAAACUUUGAGAUGGCCUUGCAAAGGGUAUGGUAAUAAGCUGACGGACAUGGUCCUAACCACGCAGCCAAGUCCUAAGUCAACAGAUCUUCUGUUGAUAUGGAUGCAGUUCACAGACUAAAUGUCGGUCGGGGAAGAUGUAUUCUUCUCAUAAGAUAUAGUCGGACCUCUCCUUAAUGGGAGCUAGCGGAUGAAGUGAUGCAACACUGGAGCCGCUGGGAACUAAUUUGUAUGCGAAAGUAUAUUGAUUAGUUUUGGAGUACUCGUGGUCG
Summary of the method: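 Six replicate transformations of E. coli BL21(DE3) with a pET-22b(+) library were grown overnight at 37°C or 30°C. The library randomised all eight P1ex-region intron nucleotides, the intron lying in the knt kanamycin-resistance gene, and plates were LB agar with or without 25 μg/mL kanamycin plus 100 μg/mL carbenicillin, 50 μM IPTG and 0.2% rhamnose. Pooled colonies were amplicon-sequenced on an Illumina HiSeq 2500, and fitness is the DiMSum error-weighted combination of wild-type-normalised replicate fold changes, kanamycin versus none.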

Sequence | self-splicing fitness (ln) (30 °C) | self-splicing fitness (ln) (37 °C)
CACGAGCAAUAUUACGCAAG | -2.4 ± 0.19 | -0.867 ± 0.15
CACGAGCAAUAUUACGCACU | -2.87 ± 0.39 | -1.61 ± 0.23
CACGAGCAAUAUUACGCCGC | -2.93 ± 0.35 | -1.33 ± 0.48
CACGAGCAAUAUUACGCGUC | -3.19 ± 0.32 | -1.52 ± 0.19
CACGAGCAAUAUUACGCUCU | -2.57 ± 0.18 | -2.93 ± 0.28
CACGAGCAAUAUUACGGAGA | -3.38 ± 0.2 | -2.85 ± 0.25
CACGAGCAAUAUUACGGCAC | -2.97 ± 0.23 | -2.43 ± 0.25
CACGAGCAAUAUUACGGUAA |  | -2.37 ± 0.27
CACGAGCAAUAUUACGGUCU | -3.44 ± 0.19 | -1.73 ± 0.16
CACGAGCAAUAUUACGUAAA |  | -1.83 ± 0.21
CACGAGCAAUAUUACGUACA | -3.75 ± 0.37 | -2.49 ± 0.24
CACGAGCAAUAUUACGUACC | -2.54 ± 0.5 | 
CACGAGCAAUAUUACGUCAA | -2.34 ± 0.17 | -2.13 ± 0.23
CACGAGCAAUAUUACGUCUA | -1.3 ± 0.32 | -1.55 ± 0.27
CACGAGCAAUAUUACGUUAU | -3.4 ± 0.19 | -3.62 ± 0.31
CACGAGCAAUAUUACGUUCU | -3.56 ± 0.2 | -2.02 ± 0.26
CACUAGCAAUAUUACGAAAG | -1.23 ± 0.062 | -0.136 ± 0.084
CACUAGCAAUAUUACGACCU | -2.03 ± 0.28 | -1.6 ± 0.18
CACUAGCAAUAUUACGACGC | -2.52 ± 0.12 | -1.02 ± 0.13
CACUAGCAAUAUUACGACGU | -2.27 ± 0.14 | -1.8 ± 0.11
CACUAGCAAUAUUACGAGAU | -3.87 ± 0.39 | -2.97 ± 0.2
CACUAGCAAUAUUACGAUCG | 0.531 ± 0.067 | 0.717 ± 0.071
CACUAGCAAUAUUACGAUUG | -0.641 ± 0.07 | -0.457 ± 0.081
CACUAGCAAUAUUACGCAAA | -2.95 ± 0.21 | -2.46 ± 0.27
CACUAGCAAUAUUACGCCAG | -1.1 ± 0.08 | -0.0668 ± 0.11

Sequence | self-splicing fitness (ln) (30 °C) | self-splicing fitness (ln) (37 °C)
CACUAGCAAUAUUACGCCCG | 0.71 ± 0.13 | 0.619 ± 0.12
CACUAGCAAUAUUACGCCUU | -1.4 ± 0.27 | -1.19 ± 0.16
CACUAGCAAUAUUACGCGGU | -4.59 ± 0.26 | -3.62 ± 0.28
CACUAGCAAUAUUACGCGUG | -3.99 ± 0.21 | -3.12 ± 0.25
CACUAGCAAUAUUACGCUGG | -4.08 ± 0.37 | -1.87 ± 0.22
CACUAGCAAUAUUACGGAAU | -4 ± 0.27 | -2.3 ± 0.32
CACUAGCAAUAUUACGGACC |  | -1.8 ± 0.24
CACUAGCAAUAUUACGGACG | 0.105 ± 0.064 | 0.332 ± 0.08
CACUAGCAAUAUUACGGGAG | -1.54 ± 0.073 | -0.152 ± 0.076
CACUAGCAAUAUUACGGGCC | -4.05 ± 0.25 | -2.56 ± 0.22
CACUAGCAAUAUUACGUACG | -0.239 ± 0.071 | 0.494 ± 0.083
CACUAGCAAUAUUACGUCUA | -2.25 ± 0.23 | -2.52 ± 0.29
CACUAGCAAUAUUACGUGCC | -4.04 ± 0.46 | -2.17 ± 0.29
CACUAGCAAUAUUACGUUAA | -2.77 ± 0.2 | -2.11 ± 0.23
CACUAGCAAUAUUACGUUAG | -3.34 ± 0.14 | -2.92 ± 0.17
CACUAGCAAUAUUACGUUCC | -3.39 ± 0.17 | -1.65 ± 0.17
CAGAAGCAAUAUUACGAAGC | -2.87 ± 0.31 | 
CAGAAGCAAUAUUACGAAUC |  | -1.93 ± 0.38
CAGAAGCAAUAUUACGACGU | -1.53 ± 0.12 | -0.618 ± 0.12
CAGAAGCAAUAUUACGACUU | -0.506 ± 0.078 | 0.0901 ± 0.079
CAGAAGCAAUAUUACGAGCC | -3.03 ± 0.47 | -1.82 ± 0.27
CAGAAGCAAUAUUACGAGCU | -2.12 ± 0.18 | -1.77 ± 0.2
CAGAAGCAAUAUUACGAGGC |  | -2.83 ± 0.4
CAGAAGCAAUAUUACGAUCG | -0.236 ± 0.078 | 0.167 ± 0.1
CAGAAGCAAUAUUACGCAGA | -2.59 ± 0.22 | -2.55 ± 0.28

Sequence | self-splicing fitness (ln) (30 °C) | self-splicing fitness (ln) (37 °C)
CAGAAGCAAUAUUACGCCCG | -0.995 ± 0.15 | 0.147 ± 0.16
CAGAAGCAAUAUUACGCUCU | -4.2 ± 0.24 | -2.41 ± 0.17
CAGAAGCAAUAUUACGGAAU | -3.93 ± 0.2 | -1.94 ± 0.18
CAGAAGCAAUAUUACGGAGA |  | -2.16 ± 0.24
CAGAAGCAAUAUUACGGCCU | -1.29 ± 0.13 | -1.82 ± 0.23
CAGAAGCAAUAUUACGGGAC |  | -1.25 ± 0.35
CAGAAGCAAUAUUACGGUAA | -3.62 ± 0.25 | -2.49 ± 0.18
CAGAAGCAAUAUUACGGUCA | -1.54 ± 0.13 | -1.15 ± 0.097
CAGAAGCAAUAUUACGGUGC | -4.16 ± 0.24 | -3.04 ± 0.18
CAGAAGCAAUAUUACGGUUC | -3.71 ± 0.19 | -2.49 ± 0.2
CAGAAGCAAUAUUACGUCAG | -1.15 ± 0.056 | -0.204 ± 0.078
CAGAAGCAAUAUUACGUCUA | -0.102 ± 0.07 | 0.782 ± 0.11
CAGAAGCAAUAUUACGUUCG | -0.642 ± 0.051 | 0.234 ± 0.064
CAGAAGCAAUAUUACGUUGG | -2.15 ± 0.11 | -0.698 ± 0.1
CAGAAGCAAUAUUACGUUUG | -3.42 ± 0.19 | -2.54 ± 0.2
CAGCAGCAAUAUUACGAGAC | -3.94 ± 0.36 | -2.21 ± 0.26
CAGCAGCAAUAUUACGAGGU | -2.8 ± 0.16 | -2.42 ± 0.21
CAGCAGCAAUAUUACGAUAA | -3.08 ± 0.14 | -2.24 ± 0.13
CAGCAGCAAUAUUACGAUCG | -0.0679 ± 0.074 | 0.219 ± 0.094
CAGCAGCAAUAUUACGAUUU | -3.59 ± 0.17 | -1.91 ± 0.15
CAGCAGCAAUAUUACGCAAC | -3.45 ± 0.28 | -1.37 ± 0.25
CAGCAGCAAUAUUACGCACG | -0.667 ± 0.09 | -0.264 ± 0.1
CAGCAGCAAUAUUACGCAUU | -3.68 ± 0.15 | -0.546 ± 0.089
CAGCAGCAAUAUUACGCGCC | -1.71 ± 0.25 | -0.362 ± 0.22
CAGCAGCAAUAUUACGCGUC | -3.68 ± 0.17 | -1.24 ± 0.13

Sequence | self-splicing fitness (ln) (30 °C) | self-splicing fitness (ln) (37 °C)
CAGCAGCAAUAUUACGCUAA | -2.47 ± 0.2 | -1.72 ± 0.13
CAGCAGCAAUAUUACGCUAC | -3.65 ± 0.38 | -2.81 ± 0.38
CAGCAGCAAUAUUACGGAUG | -2.06 ± 0.097 | -1.48 ± 0.098
CAGCAGCAAUAUUACGGGCG | 0.0476 ± 0.064 | 0.363 ± 0.083
CAGCAGCAAUAUUACGGUCA | -2.45 ± 0.17 | -1.22 ± 0.11
CAGCAGCAAUAUUACGGUCU | -2.87 ± 0.13 | -0.712 ± 0.1
CAGCAGCAAUAUUACGGUUA | -0.417 ± 0.06 | -0.163 ± 0.059
CAGCAGCAAUAUUACGUAGA | -2.13 ± 0.071 | -1.57 ± 0.097
CAGCAGCAAUAUUACGUCAU | -4.22 ± 0.33 | -2.77 ± 0.23
CAGCAGCAAUAUUACGUCCA | -2.61 ± 0.3 | -0.781 ± 0.22
CAGCAGCAAUAUUACGUCGA | -1.73 ± 0.12 | -1.25 ± 0.11
CAGCAGCAAUAUUACGUGCG | -1 ± 0.05 | -0.378 ± 0.066
CAGCAGCAAUAUUACGUUCA | -2.17 ± 0.2 | -0.173 ± 0.17
CAGCAGCAAUAUUACGUUCC |  | -2.13 ± 0.25
CAGGAGCAAUAUUACGAGGU | -2.48 ± 0.2 | -2.84 ± 0.25
CAGGAGCAAUAUUACGCCCA | -2.13 ± 0.38 | -1.18 ± 0.27
CAGGAGCAAUAUUACGCCGA | -1.75 ± 0.4 | 
CAGGAGCAAUAUUACGCCUU | -1.86 ± 0.24 | -1.99 ± 0.33
CAGGAGCAAUAUUACGCGAG | -2.59 ± 0.23 | -1.59 ± 0.16
CAGGAGCAAUAUUACGCGGC | -1.43 ± 0.36 | -1.14 ± 0.41
CAGGAGCAAUAUUACGCUUU | -3.59 ± 0.22 | -1.81 ± 0.17
CAGGAGCAAUAUUACGGCGA | -2.73 ± 0.29 | -3.49 ± 0.29
CAGGAGCAAUAUUACGGGGU | -3.38 ± 0.23 | -2.19 ± 0.24
